According to PMC8204981, “Helicobacter pylori GmhB enzyme involved in ADP-heptose biosynthesis pathway is essential for lipopolysaccharide biosynthesis and bacterial virulence” (Virulence, 2021):

What was measured:
[1] = system: O=P(O)(O)OC[C@@H](O)[C@H]1O[C@H](OP(=O)(O)O)[C@@H](O)[C@@H](O)[C@@H]1O; experiment: purified protein; conditions: 20 mM HEPES pH 8.0, 10 mM MgCl2, 10 mM KCl, 25 °C, 30 min
Excerpt: (§1) malachite green phosphate release assay, Michaelis-Menten fit on HP0860 protein (H. pylori GmhB)

[2] = system: O=P(O)(O)OC[C@@H](O)[C@H]1O[C@@H](OP(=O)(O)O)[C@@H](O)[C@@H](O)[C@@H]1O; experiment: purified protein; conditions: 20 mM HEPES pH 8.0, 10 mM MgCl2, 10 mM KCl, 25 °C, 30 min
Excerpt: as §1

Question: With “HP0860 protein (H. pylori GmhB) (Helicobacter pylori 26695)” as the substance, how does the Km [1] read?
Answer: Its Km is 300 ± 80 µM.

Question: And the kcat [1]?
Answer: Its kcat is 1.07 ± 0.1 s⁻¹.

Question: And the kcat/Km [1]?
Answer: The kcat/Km was 3570 M⁻¹ s⁻¹.

Question: What about the Km [2] of the same substance?
Answer: Its Km is 210 ± 50 µM.

Question: And the kcat [2]?
Answer: Its kcat is 2.18 ± 0.17 s⁻¹.

Question: What about the kcat/Km [2] of the same substance?
Answer: The kcat/Km was 10400 M⁻¹ s⁻¹.
